Data reported in the supplement of paper PMC10724198.
± gives the standard deviation of the averaged measurements.

System: Saccharomyces cerevisiae
Test: protein stability index of tFT-peptide fusion (C-terminal peptide) (PSI (0-1 scale)); higher = more stable (slower turnover)
Settings: genetic background: wild type; temperature: 30 C
Method: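 Multiplexed protein stability (MPS) profiling in S. cerevisiae. Random 12-aa peptides (tFT-X12 library) are fused to the C-terminus of a sfGFP-mCherry tandem fluorescent timer, after mCherry and a GGGS linker. Cells are FACS-sorted into 8 mCherry/sfGFP bins and deep-sequenced. The protein stability index (PSI) is the read-weighted bin average, scaled from 0 (unstable) to 1 (stable). Only peptides with >10 reads are reported; cells were grown at 30 °C in SC-His with glucose.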
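Further: PSI is a weighted mean of sequencing reads over stability bins, variants kept only with over 10 reads, mCherry proximal and sfGFP distal, peptide attached via GGGS linker.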

| Sequence | protein stability index |
| --- | --- |
| PAPPSHLLLPLL | 0.768 ± 0.067 |
| PKTSTPPPTSPA | 0.675 ± 0.0073 |
| SGPSSIGSSCMS | 0.663 ± 0.023 |
| CKKGVEIIEREK | 0.632 ± 0.026 |
| GLLRSHYLDRGF | 0.693 ± 0.047 |
| SLPSPIPPPSLL | 0.739 ± 0.29 |
| NFFTLTRCTLFI | 0.66684 ± 0.00029 |
| LLGSGTVSGCAG | 0.642 ± 0.04 |
| LFVFSVCSWPRV | 0.579 ± 0.04 |
| EVGQYVEWSCLL | 0.671 ± 0.019 |
| FSELTGFMSVRG | 0.652 ± 0.025 |
| QRGCEAKRGGEG | 0.628 ± 0.014 |
| SACRSVPGYVAG | 0.672 ± 0.046 |
| VGKIRWIGFGGW | 0.695 ± 0.051 |
| VCVCCMGCGLGV | 0.68773 ± 5.6e-05 |
| WVSSRSSVVARG | 0.653 ± 0.043 |
| EFRWVASGDLLS | 0.749 ± 0.017 |
| VSPLRGSRAPFP | 0.744 ± 0.068 |
| SGLRPGAGDCSA | 0.611 ± 0.07 |
| DSHEEGVSVAPA | 0.749 ± 0.034 |
| GGGGCDVGGCVG | 0.675 ± 0.039 |
| PALPPPPLLSSS | 0.705 ± 0.012 |
| DGQNPVAFGSHG | 0.691 ± 0.057 |
| TYVPRYPPPLFP | 0.72 ± 0.061 |
| GKREGRGRKRGG | 0.807 ± 0.092 |

| Sequence | protein stability index |
| --- | --- |
| RSPNSSPPPSIS | 0.648 ± 0.014 |
| PLVRGSLGALGR | 0.657 ± 0.12 |
| LVGGGDRPGLGR | 0.66 ± 0.0079 |
| RAVSGSLSFLLR | 0.721 ± 0.014 |
| VAESCVIVFWLG | 0.506 ± 0.0056 |
| ELFHVGQLNSHE | 0.738 ± 0.12 |
| GGRVGGSMGVGG | 0.659 ± 0.028 |
| LGSYSALKIGWG | 0.592 ± 0.029 |
| DAKPNMATGLSI | 0.703 ± 0.027 |
| RFSTRAVRLGPC | 0.705 ± 0.19 |
| SLSPPLLPPSPP | 0.643 ± 0.018 |
| GTHFRPAREERV | 0.708 ± 0.039 |
| ARPPLSHPRPPL | 0.788 ± 0.057 |
| FGGMSGVLFRMV | 0.663 ± 0.054 |
| LPHCPLNVFPLV | 0.654 ± 0.034 |
| PPPPLPHPALPP | 0.675 ± 0.04 |
| PSQHVHTSPLYS | 0.695 ± 0.022 |
| HATPPPLPSPPL | 0.71976 ± 0.0003 |
| PPPSALPPLPQP | 0.712 ± 0.01 |
| TMLPQGFSGNLH | 0.6891 ± 0.0025 |
| VISLFSSLCSRL | 0.797 ± 0.05 |
| WWRGSVWHREVA | 0.701 ± 0.0088 |
| VVEKKKKKKNNK | 0.73 ± 0.041 |
| GDHPPMETISRP | 0.734 ± 0.095 |
| LLPSLSPPPTPP | 0.655 ± 0.051 |

| Sequence | protein stability index |
| --- | --- |
| GVAGGLLLRGGR | 0.673 ± 0.13 |
| QGRCHSRARMTP | 0.731 ± 0.046 |
| PSPRPPPPPPSA | 0.705 ± 0.009 |
| FRHSSAVLAPGV | 0.6896 ± 0.0057 |
| PPPPPPPLAPPL | 0.685 ± 0.021 |
| PSRRAPQSRPSQ | 0.733 ± 0.098 |
| STVESAWPAGPA | 0.712 ± 0.0016 |
| VGASRAGGEVSR | 0.651 ± 0.013 |
| VFLRSGCSGWGE | 0.827 ± 0.094 |
| WLPPPPYSPFSL | 0.724 ± 0.059 |
| WFQRGKIPIHKV | 0.667 ± 0.074 |
| LQCGDWVETTGS | 0.709 ± 0.031 |
| LQLFLWRVVAPV | 0.477 ± 0.038 |
| CDQVSDGSMGTV | 0.634 ± 0.04 |
| VSKLTRHLWANQ | 0.61 ± 0.094 |
| SRLPRGTYRGCP | 0.711 ± 0.076 |
| DPTVIKNQTWFG | 0.722 ± 0.05 |
| PPPRSPLFSLPP | 0.678 ± 0.032 |
| VDLLFLMVGTSV | 0.574 ± 0.011 |
| LVSGASHWPSYT | 0.694 ± 0.014 |
| GNTNIYIVMRES | 0.5935 ± 0.0031 |
| APRFDLVLPHVF | 0.721 ± 0.07 |
| PISLSFPPPLHP | 0.65 ± 0.017 |
| WLSAGAWGAVIL | 0.788 ± 0.034 |
| SPPRPPSLPPPG | 0.67 ± 0.071 |

| Sequence | protein stability index |
| --- | --- |
| PFRPPPPPSSPP | 0.735 ± 0.037 |
| VSGNLITLRCFT | 0.59604 ± 0.00021 |
| PEEPSANWTGFF | 0.598 ± 0.033 |
| RHRLTPLTQYPS | 0.677 ± 0.062 |
| PLLYSDRPSIFL | 0.663 ± 0.026 |
| LGFFGGGRGAGG | 0.677 ± 0.016 |
| FKSYNNDLQDRI | 0.728 ± 0.16 |
| IIFRLLLSRFFL | 0.543 ± 0.022 |
| NKYEMRDDTMNI | 0.681 ± 0.056 |
| HPPAFSAKTFPS | 0.683 ± 0.043 |
| PPRPLPARRLSF | 0.753 ± 0.081 |
| APPPLCCPPLAP | 0.735 ± 0.1 |
| VLDCRDVSCHVL | 0.661 ± 0.0081 |
| FPELLFLFSPSF | 0.723 ± 0.022 |
| GSGDFWRLCISL | 0.785 ± 0.1 |
| LCMGVRGRVGVF | 0.682 ± 0.088 |
| GPVVGGWSVVSK | 0.655 ± 0.058 |
| KLKTTEKTNPRE | 0.805 ± 0.14 |
| WRCYCFLGLDEG | 0.653 ± 0.029 |
| RAKCELVHGLRT | 0.65 ± 0.026 |
| NKTKIKKKKKRG | 0.657 ± 0.013 |
| PLPPAPPSLSPP | 0.651 ± 0.01 |
| KHTGFAGGMTWT | 0.707 ± 0.016 |
